Data reported in patent US20160272683A1 (Novo Nordisk, published 2016).
Numbered stars: 1 amine (or outer) side, 2 acyl side, 3 side chain; on linkers, the order of the positions; unused ones are H or OH. Ends that are not written are not given here. * marks the point of attachment. C20 diacid = O=C(O)CCCCCCCCCCCCCCCCCCC(=O)*; C18 diacid = O=C(O)CCCCCCCCCCCCCCCCC(=O)*; γGlu = O=C(O)[C@H](CCC(=O)[*:2])N[*:1]

T1: human calcitonin receptor (human, UniProt P30988 25-474)
T1 construct: whole, on cells; also called hCT-R; hCTR
T1 sequence (looked up): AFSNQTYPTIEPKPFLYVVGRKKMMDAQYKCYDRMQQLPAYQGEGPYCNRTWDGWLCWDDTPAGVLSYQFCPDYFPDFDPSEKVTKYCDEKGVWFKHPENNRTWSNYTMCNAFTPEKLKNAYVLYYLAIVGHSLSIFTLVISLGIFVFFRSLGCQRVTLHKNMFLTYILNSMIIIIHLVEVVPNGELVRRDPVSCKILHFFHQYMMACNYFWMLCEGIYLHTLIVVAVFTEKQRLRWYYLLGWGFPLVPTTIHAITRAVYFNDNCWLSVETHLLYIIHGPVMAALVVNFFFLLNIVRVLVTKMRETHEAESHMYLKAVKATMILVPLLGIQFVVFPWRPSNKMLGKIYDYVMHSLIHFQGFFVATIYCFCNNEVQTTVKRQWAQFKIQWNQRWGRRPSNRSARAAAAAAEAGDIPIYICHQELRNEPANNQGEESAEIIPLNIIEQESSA

T2: human amylin receptor (human calcitonin receptor + human RAMP3) (human) (UniProt P30988)
T2 sequence (looked up) 1: T1 sequence (looked up)
T2 sequence (looked up) 2: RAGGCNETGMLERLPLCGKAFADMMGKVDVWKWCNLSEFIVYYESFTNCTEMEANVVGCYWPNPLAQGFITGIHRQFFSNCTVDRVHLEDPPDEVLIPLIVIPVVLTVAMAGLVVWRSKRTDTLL

B1: [N-terminal(C18 diacid), 5H]mimylin (peptide)
peptide: {C18 diacid}-EASEHSTAALGRLSAELHELATLPRTETGPESP-NH2
SMILES: CC(C)C[C@H](NC(=O)[C@H](C)NC(=O)[C@H](C)NC(=O)[C@@H](NC(=O)[C@H](CO)NC(=O)[C@H](Cc1c[nH]cn1)NC(=O)[C@H](CCC(=O)O)NC(=O)[C@H](CO)NC(=O)[C@H](C)NC(=O)[C@H](CCC(=O)O)NC(=O)CCCCCCCCCCCCCCCCC(=O)O)[C@@H](C)O)C(=O)NCC(=O)N[C@@H](CCCNC(=N)N)C(=O)N[C@@H](CC(C)C)C(=O)N[C@@H](CO)C(=O)N[C@@H](C)C(=O)N[C@@H](CCC(=O)O)C(=O)N[C@@H](CC(C)C)C(=O)N[C@@H](Cc1c[nH]cn1)C(=O)N[C@@H](CCC(=O)O)C(=O)N[C@@H](CC(C)C)C(=O)N[C@@H](C)C(=O)N[C@H](C(=O)N[C@@H](CC(C)C)C(=O)N1CCC[C@H]1C(=O)N[C@@H](CCCNC(=N)N)C(=O)N[C@H](C(=O)N[C@@H](CCC(=O)O)C(=O)N[C@H](C(=O)NCC(=O)N1CCC[C@H]1C(=O)N[C@@H](CCC(=O)O)C(=O)N[C@@H](CO)C(=O)N1CCC[C@H]1C(N)=O)[C@@H](C)O)[C@@H](C)O)[C@@H](C)O
notes: also called Ex. #17
B2: [N-terminal(C18 diacid), 3P, 9V]mimylin (peptide)
peptide: {C18 diacid}-EAPELSTAVLGRLSAELHELATLPRTETGPESP-NH2
SMILES: CC(C)C[C@H](NC(=O)[C@H](CCC(=O)O)NC(=O)[C@H](Cc1c[nH]cn1)NC(=O)[C@H](CC(C)C)NC(=O)[C@H](CCC(=O)O)NC(=O)[C@H](C)NC(=O)[C@H](CO)NC(=O)[C@H](CC(C)C)NC(=O)[C@H](CCCNC(=N)N)NC(=O)CNC(=O)[C@H](CC(C)C)NC(=O)[C@@H](NC(=O)[C@H](C)NC(=O)[C@@H](NC(=O)[C@H](CO)NC(=O)[C@H](CC(C)C)NC(=O)[C@H](CCC(=O)O)NC(=O)[C@@H]1CCCN1C(=O)[C@H](C)NC(=O)[C@H](CCC(=O)O)NC(=O)CCCCCCCCCCCCCCCCC(=O)O)[C@@H](C)O)C(C)C)C(=O)N[C@@H](C)C(=O)N[C@H](C(=O)N[C@@H](CC(C)C)C(=O)N1CCC[C@H]1C(=O)N[C@@H](CCCNC(=N)N)C(=O)N[C@H](C(=O)N[C@@H](CCC(=O)O)C(=O)N[C@H](C(=O)NCC(=O)N1CCC[C@H]1C(=O)N[C@@H](CCC(=O)O)C(=O)N[C@@H](CO)C(=O)N1CCC[C@H]1C(N)=O)[C@@H](C)O)[C@@H](C)O)[C@@H](C)O
notes: also called Ex. #29
B3: [N-terminal(C18 diacid), 2P, 9V]mimylin (peptide)
peptide: {C18 diacid}-EPSELSTAVLGRLSAELHELATLPRTETGPESP-NH2
SMILES: CC(C)C[C@H](NC(=O)[C@H](CCC(=O)O)NC(=O)[C@H](Cc1c[nH]cn1)NC(=O)[C@H](CC(C)C)NC(=O)[C@H](CCC(=O)O)NC(=O)[C@H](C)NC(=O)[C@H](CO)NC(=O)[C@H](CC(C)C)NC(=O)[C@H](CCCNC(=N)N)NC(=O)CNC(=O)[C@H](CC(C)C)NC(=O)[C@@H](NC(=O)[C@H](C)NC(=O)[C@@H](NC(=O)[C@H](CO)NC(=O)[C@H](CC(C)C)NC(=O)[C@H](CCC(=O)O)NC(=O)[C@H](CO)NC(=O)[C@@H]1CCCN1C(=O)[C@H](CCC(=O)O)NC(=O)CCCCCCCCCCCCCCCCC(=O)O)[C@@H](C)O)C(C)C)C(=O)N[C@@H](C)C(=O)N[C@H](C(=O)N[C@@H](CC(C)C)C(=O)N1CCC[C@H]1C(=O)N[C@@H](CCCNC(=N)N)C(=O)N[C@H](C(=O)N[C@@H](CCC(=O)O)C(=O)N[C@H](C(=O)NCC(=O)N1CCC[C@H]1C(=O)N[C@@H](CCC(=O)O)C(=O)N[C@@H](CO)C(=O)N1CCC[C@H]1C(N)=O)[C@@H](C)O)[C@@H](C)O)[C@@H](C)O
notes: also called Ex. #28
B4: [N-terminal(C18 diacid), 4P, 9V]mimylin (peptide)
peptide: {C18 diacid}-EASPLSTAVLGRLSAELHELATLPRTETGPESP-NH2
SMILES: CC(C)C[C@H](NC(=O)[C@H](CCC(=O)O)NC(=O)[C@H](Cc1c[nH]cn1)NC(=O)[C@H](CC(C)C)NC(=O)[C@H](CCC(=O)O)NC(=O)[C@H](C)NC(=O)[C@H](CO)NC(=O)[C@H](CC(C)C)NC(=O)[C@H](CCCNC(=N)N)NC(=O)CNC(=O)[C@H](CC(C)C)NC(=O)[C@@H](NC(=O)[C@H](C)NC(=O)[C@@H](NC(=O)[C@H](CO)NC(=O)[C@H](CC(C)C)NC(=O)[C@@H]1CCCN1C(=O)[C@H](CO)NC(=O)[C@H](C)NC(=O)[C@H](CCC(=O)O)NC(=O)CCCCCCCCCCCCCCCCC(=O)O)[C@@H](C)O)C(C)C)C(=O)N[C@@H](C)C(=O)N[C@H](C(=O)N[C@@H](CC(C)C)C(=O)N1CCC[C@H]1C(=O)N[C@@H](CCCNC(=N)N)C(=O)N[C@H](C(=O)N[C@@H](CCC(=O)O)C(=O)N[C@H](C(=O)NCC(=O)N1CCC[C@H]1C(=O)N[C@@H](CCC(=O)O)C(=O)N[C@@H](CO)C(=O)N1CCC[C@H]1C(N)=O)[C@@H](C)O)[C@@H](C)O)[C@@H](C)O
notes: also called Ex. #30
B5: [30S, 31G]mimylin (peptide)
peptide: EASELSTAALGRLSAELHELATLPRTETGSGSP-NH2
notes: backbone without side chain; also called Ex. #22bb; 22bb
B6: [N-terminal(C20 diacid-gGlu), des1, 2L, 4Q, 8L, 9V, 15Q, 16R, 19R, 21Q, 23Y, 27Q, 30S, 31Q, 32T, 33Y]mimylin (peptide)
peptide: {C20 diacid-γGlu}-LSQLSTLVLGRLSQRLHRLQTYPRTQTGSQTY-NH2
SMILES: CC(C)C[C@H](NC(=O)CC[C@H](NC(=O)CCCCCCCCCCCCCCCCCCC(=O)O)C(=O)O)C(=O)N[C@@H](CO)C(=O)N[C@@H](CCC(N)=O)C(=O)N[C@@H](CC(C)C)C(=O)N[C@@H](CO)C(=O)N[C@H](C(=O)N[C@@H](CC(C)C)C(=O)N[C@H](C(=O)N[C@@H](CC(C)C)C(=O)NCC(=O)N[C@@H](CCCNC(=N)N)C(=O)N[C@@H](CC(C)C)C(=O)N[C@@H](CO)C(=O)N[C@@H](CCC(N)=O)C(=O)N[C@@H](CCCNC(=N)N)C(=O)N[C@@H](CC(C)C)C(=O)N[C@@H](Cc1c[nH]cn1)C(=O)N[C@@H](CCCNC(=N)N)C(=O)N[C@@H](CC(C)C)C(=O)N[C@@H](CCC(N)=O)C(=O)N[C@H](C(=O)N[C@@H](Cc1ccc(O)cc1)C(=O)N1CCC[C@H]1C(=O)N[C@@H](CCCNC(=N)N)C(=O)N[C@H](C(=O)N[C@@H](CCC(N)=O)C(=O)N[C@H](C(=O)NCC(=O)N[C@@H](CO)C(=O)N[C@@H](CCC(N)=O)C(=O)N[C@H](C(=O)N[C@@H](Cc1ccc(O)cc1)C(N)=O)[C@@H](C)O)[C@@H](C)O)[C@@H](C)O)[C@@H](C)O)C(C)C)[C@@H](C)O

Experiments:
[1] = target: T1, human calcitonin receptor; assay: whole-cell competition vs 125I-human calcitonin (Assay VIIa)
Method: The binding assay was performed using a BHK tk'ts 13 cell line was stably transfected with the human calcitonin receptor, and a CRE-responsive luciferase reporter gene.
The day before the assay the cells were Seeded into Poly-D-Lysin coated 384W Opaque White, BD BioCoat plates (10000 cells/well) and Incubated overnight at 37° C., 5% CO2, 95% humidity. […] The morning after, the plates were washed three times in HBSS (4° C.), and lyzed in Lysis buffer (0.1 M NaOH), 1% SDS. Scintillation cocktail (MicroScint40®) was added and the plates were shaken at 500 rpm for a short period. The plate was incubated at room temperature in the dark for 1 hour and Read on a TopCounter™ (Packard). The IC₅₀ was calculated using (one site binding competition analysis) GraphPad Prism5 as a measure of receptor affinity.

[2] = target: T2, human amylin receptor (human calcitonin receptor + human RAMP3) (human); assay: whole-cell competition vs 125I-rat amylin (Assay Va)

IC50 [1] [nM] | IC50 [2] [nM] | Binder
0.431 |  | EASELSTAALGRLSAELHELATLPRTETGPESP-NH2 (also called Ex. #1) [mimylin]
0.577 |  | B1
0.309 |  | B2
0.351 |  | B3
0.478 |  | B4
0.481 |  | B5
 | 5.1 | ASELSTAALGHLSAELHELATLPRTETGSGSP-NH2 [[des1, 12H, 30S, 31G]mimylin]
 | 0.982 | ASEVSTAVLGRLSAELHELATLPRTETGSGSP-NH2 [[des1, 5V, 9V, 30S, 31G]mimylin]
 | 0.469 | EASELSTAALGRLSAELHELATLPRTETGSGSP-NH2
 | 20.2 | ASELTTAVLGRLSAELHELATLPRTETGTGTP-NH2 [[des1, 6T, 9V, 30T, 31G, 32T]mimylin]
 | 294 | EASELSTAALGRLSAELHELATLPRTETGPESP-OH [[C-terminal(-)]mimylin]
 | 298 | {C18 diacid}-EASELSTAALGRLSAELHELATLPRTETGPESP-OH [[N-terminal(C18 diacid), C-terminal(-)]mimylin]
 | 71.4 | ASELTTAVLGRLEAELHELTTLPRTETGTGTP-NH2 [[des1, 6T, 9V, 14E, 21T, 30T, 31G, 32T]mimylin]
 | 1.18 | LSGLSTAVLGRLSQELHELQTYPRTETGSQTY-NH2 [[des1, 2L, 4G, 9V, 15Q, 21Q, 23Y, 30S, 31Q, 32T, 33Y]mimylin]
 | 10.7 | B6
